Key:
Test in all cases: holdup assay
Design in all cases: key: below the threshold = too weak to quantify, mostly under pKd 3.1 to 4
Details in all cases: plain residues with an end cap or a label only (N-terminal biotin on a linker: ado-ado)
[1] = target: MAGI2_5, Q86UL8
[2] = target: GOPC, Q9HD26
[3] = target: IL16_1, Q14005
[4] = target: T1, LRRC7, Q96NW7
T1 sequence (Q96NW7 1440-1537, limits assumed, looked up): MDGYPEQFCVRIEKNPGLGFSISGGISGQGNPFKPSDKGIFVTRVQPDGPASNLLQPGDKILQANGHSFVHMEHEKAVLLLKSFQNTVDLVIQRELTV

[5] = target: T2, RAPGEF6, Q8TEU7
T2 sequence (Q8TEU7 525-625, limits assumed, looked up): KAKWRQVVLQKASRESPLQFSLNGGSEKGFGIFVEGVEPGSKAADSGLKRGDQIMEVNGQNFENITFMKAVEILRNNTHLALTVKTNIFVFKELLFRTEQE

[6] = target: DLG4_2, P78352
[7] = target: HTRA2, O43464
[8] = target: T3, MPDZ_10, O75970
T3 sequence (O75970 1624-1722, limits assumed, looked up): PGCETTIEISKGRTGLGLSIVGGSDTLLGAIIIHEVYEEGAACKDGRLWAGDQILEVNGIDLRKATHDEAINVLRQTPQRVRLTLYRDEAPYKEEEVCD

[9] = target: FRMPD2_2, Q68DX3
[10] = target: Inadl_2, Q8NI35
[11] = target: T4, GRIP1_7, Q9Y3R0
T4 sequence (Q9Y3R0 999-1096, limits assumed, looked up): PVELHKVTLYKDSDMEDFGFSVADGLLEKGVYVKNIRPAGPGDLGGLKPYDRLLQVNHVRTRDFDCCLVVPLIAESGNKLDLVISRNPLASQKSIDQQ

[12] = target: T5, GRIP1_2, Q9Y3R0
T5 sequence (Q9Y3R0 145-248, limits assumed, looked up): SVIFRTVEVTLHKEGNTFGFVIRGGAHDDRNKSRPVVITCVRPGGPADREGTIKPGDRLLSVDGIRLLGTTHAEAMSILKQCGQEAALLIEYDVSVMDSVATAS

[13] = target: GRIP2_6, Q9C0E4
[14] = target: FRMPD4, Q14CM0
[15] = target: T6, MPDZ_5, O75970
T6 sequence (O75970 695-796, limits assumed, looked up): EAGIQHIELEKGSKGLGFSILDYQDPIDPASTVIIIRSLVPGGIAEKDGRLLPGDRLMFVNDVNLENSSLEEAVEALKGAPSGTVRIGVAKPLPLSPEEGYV

[16] = target: T7, MPP7, Q5T2T1
T7 sequence (Q5T2T1 134-230, limits assumed, looked up): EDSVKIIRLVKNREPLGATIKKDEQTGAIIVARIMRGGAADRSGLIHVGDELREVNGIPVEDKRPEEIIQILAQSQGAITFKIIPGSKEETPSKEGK

[17] = target: FRMPD3, Q5JV73
[18] = target: T8, DFNB31_1, Q9P202
T8 sequence (Q9P202 135-233, limits assumed, looked up): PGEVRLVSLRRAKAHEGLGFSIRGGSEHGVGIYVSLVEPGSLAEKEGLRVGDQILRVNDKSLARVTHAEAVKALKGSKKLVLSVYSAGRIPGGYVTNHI

[19] = target: MAST1, Q9Y2H9
[20] = target: T9, CARD11, Q9BXL7
T9 sequence (Q9BXL7 662-765, limits assumed, looked up): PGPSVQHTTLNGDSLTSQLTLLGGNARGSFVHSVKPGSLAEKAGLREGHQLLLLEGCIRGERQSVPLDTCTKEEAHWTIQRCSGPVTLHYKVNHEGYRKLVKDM

[21] = target: LDB3, O75112
[22] = target: NHERF4_1, Q86UT5-2
[23] = target: MAGI3_2, Q5TCQ9
[24] = target: Inadl_4, Q8NI35
[25] = target: T10, RADIL, Q96JH8
T10 sequence (Q96JH8 971-1071, limits assumed, looked up): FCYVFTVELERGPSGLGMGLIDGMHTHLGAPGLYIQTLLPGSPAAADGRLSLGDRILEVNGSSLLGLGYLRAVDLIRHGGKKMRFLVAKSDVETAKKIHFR

[26] = target: T11, MPP6, Q9NZW5
T11 sequence (Q9NZW5 125-219, limits assumed, looked up): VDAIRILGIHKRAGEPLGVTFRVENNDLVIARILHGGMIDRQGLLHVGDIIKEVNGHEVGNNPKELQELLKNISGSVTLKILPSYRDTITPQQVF

Sequence of FRMPD4, Q14CM0 (Q14CM0 67-160): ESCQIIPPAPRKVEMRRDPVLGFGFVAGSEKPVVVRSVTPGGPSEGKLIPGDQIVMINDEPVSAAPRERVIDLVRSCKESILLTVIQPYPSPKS
Sequence of MAST1, Q9Y2H9 (Q9Y2H9 962-1065): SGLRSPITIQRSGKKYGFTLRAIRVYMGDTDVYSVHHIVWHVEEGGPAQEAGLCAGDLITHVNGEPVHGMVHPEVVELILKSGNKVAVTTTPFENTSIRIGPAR
Sequence of Inadl_2, Q8NI35 (Q8NI35 238-335): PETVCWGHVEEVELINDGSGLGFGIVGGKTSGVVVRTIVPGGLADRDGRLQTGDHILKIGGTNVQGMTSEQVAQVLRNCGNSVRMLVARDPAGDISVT
Sequence of DLG4_2, P78352 (P78352 155-259): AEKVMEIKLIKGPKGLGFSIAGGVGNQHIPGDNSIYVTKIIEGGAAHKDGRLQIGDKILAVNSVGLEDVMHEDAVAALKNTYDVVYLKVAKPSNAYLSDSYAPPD
Sequence of IL16_1, Q14005 (Q14005 210-306): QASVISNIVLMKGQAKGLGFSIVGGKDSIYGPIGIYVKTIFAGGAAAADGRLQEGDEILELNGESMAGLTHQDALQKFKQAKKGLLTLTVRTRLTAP
Sequence of GRIP2_6, Q9C0E4 (Q9C0E4 648-740): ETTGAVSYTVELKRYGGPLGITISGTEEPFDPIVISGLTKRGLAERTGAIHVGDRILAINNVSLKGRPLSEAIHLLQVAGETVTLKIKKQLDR
Sequence of Inadl_4, Q8NI35 (Q8NI35 547-651): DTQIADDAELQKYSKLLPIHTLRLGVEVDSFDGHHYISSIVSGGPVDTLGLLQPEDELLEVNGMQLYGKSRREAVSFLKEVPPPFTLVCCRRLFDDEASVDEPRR
Sequence of FRMPD3, Q5JV73 (Q5JV73 12-100): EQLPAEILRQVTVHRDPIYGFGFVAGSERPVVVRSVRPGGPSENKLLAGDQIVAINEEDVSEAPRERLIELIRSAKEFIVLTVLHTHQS
Sequence of LDB3, O75112 (O75112 1-94): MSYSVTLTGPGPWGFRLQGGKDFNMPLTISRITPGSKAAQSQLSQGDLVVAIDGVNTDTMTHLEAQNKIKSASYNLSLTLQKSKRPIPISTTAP
Sequence of MAGI3_2, Q5TCQ9 (Q5TCQ9 398-503): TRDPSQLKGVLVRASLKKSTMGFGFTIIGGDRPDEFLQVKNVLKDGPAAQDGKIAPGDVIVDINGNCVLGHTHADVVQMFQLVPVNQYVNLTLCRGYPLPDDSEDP
Sequence of HTRA2, O43464 (O43464 355-458): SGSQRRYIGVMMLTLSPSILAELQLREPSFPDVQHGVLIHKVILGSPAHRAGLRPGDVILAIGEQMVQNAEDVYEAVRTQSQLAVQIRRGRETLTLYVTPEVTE
Sequence of FRMPD2_2, Q68DX3 (Q68DX3 944-1038): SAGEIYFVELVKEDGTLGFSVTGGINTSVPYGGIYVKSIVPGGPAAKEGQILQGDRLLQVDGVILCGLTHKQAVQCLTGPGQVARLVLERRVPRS
Sequence of NHERF4_1, Q86UT5-2 (Q86UT5 other isoform, or with tags, fused parts or gaps): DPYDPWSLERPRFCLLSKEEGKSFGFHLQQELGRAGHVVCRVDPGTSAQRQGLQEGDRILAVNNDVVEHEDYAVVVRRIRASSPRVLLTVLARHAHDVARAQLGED
Sequence of MAGI2_5, Q86UL8 (Q86UL8 915-1017): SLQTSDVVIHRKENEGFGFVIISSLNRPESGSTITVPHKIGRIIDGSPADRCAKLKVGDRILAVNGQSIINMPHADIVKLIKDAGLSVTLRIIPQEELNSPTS

ETQVTAETVI [TMEM225B, P0DP42]
pKd [1]: below the threshold | pKd [2]: below the threshold | pKd [3]: below the threshold | pKd [4]: below the threshold | pKd [5]: below the threshold | pKd [6]: 4.05 | pKd [7]: below the threshold | pKd [8]: below the threshold | pKd [9]: below the threshold | pKd [10]: below the threshold | pKd [11]: below the threshold | pKd [12]: below the threshold | pKd [13]: below the threshold | pKd [14]: below the threshold | pKd [15]: below the threshold | pKd [16]: below the threshold | pKd [17]: below the threshold | pKd [18]: 4.59 | pKd [19]: 4.31 | pKd [20]: below the threshold | pKd [21]: below the threshold | pKd [22]: below the threshold | pKd [23]: 3.79 | pKd [24]: below the threshold | pKd [25]: below the threshold | pKd [26]: below the threshold

SGSLKLMTTV [DACT1, Q9NYF0]
pKd [1]: 4.51 | pKd [2]: 3.95 | pKd [3]: below the threshold | pKd [4]: below the threshold | pKd [5]: below the threshold | pKd [6]: 5.22 | pKd [7]: below the threshold | pKd [8]: below the threshold | pKd [9]: below the threshold | pKd [10]: below the threshold | pKd [11]: below the threshold | pKd [12]: below the threshold | pKd [13]: below the threshold | pKd [14]: below the threshold | pKd [15]: below the threshold | pKd [16]: below the threshold | pKd [17]: below the threshold | pKd [18]: 3.56 | pKd [19]: 3.97 | pKd [20]: below the threshold | pKd [21]: below the threshold | pKd [22]: below the threshold | pKd [23]: 5.21 | pKd [24]: below the threshold | pKd [25]: 4.15 | pKd [26]: below the threshold
